We go through 2 molecules from publication doi:10.1101/2023.11.12.566739.

The target of data set [1] is T1, α-synCas (synthetic ancestral Cas12a-like nuclease, ASR) (synthetic construct (ancestral …, UniProt PDB:8QWE_1 1-1261)).
T1 chain: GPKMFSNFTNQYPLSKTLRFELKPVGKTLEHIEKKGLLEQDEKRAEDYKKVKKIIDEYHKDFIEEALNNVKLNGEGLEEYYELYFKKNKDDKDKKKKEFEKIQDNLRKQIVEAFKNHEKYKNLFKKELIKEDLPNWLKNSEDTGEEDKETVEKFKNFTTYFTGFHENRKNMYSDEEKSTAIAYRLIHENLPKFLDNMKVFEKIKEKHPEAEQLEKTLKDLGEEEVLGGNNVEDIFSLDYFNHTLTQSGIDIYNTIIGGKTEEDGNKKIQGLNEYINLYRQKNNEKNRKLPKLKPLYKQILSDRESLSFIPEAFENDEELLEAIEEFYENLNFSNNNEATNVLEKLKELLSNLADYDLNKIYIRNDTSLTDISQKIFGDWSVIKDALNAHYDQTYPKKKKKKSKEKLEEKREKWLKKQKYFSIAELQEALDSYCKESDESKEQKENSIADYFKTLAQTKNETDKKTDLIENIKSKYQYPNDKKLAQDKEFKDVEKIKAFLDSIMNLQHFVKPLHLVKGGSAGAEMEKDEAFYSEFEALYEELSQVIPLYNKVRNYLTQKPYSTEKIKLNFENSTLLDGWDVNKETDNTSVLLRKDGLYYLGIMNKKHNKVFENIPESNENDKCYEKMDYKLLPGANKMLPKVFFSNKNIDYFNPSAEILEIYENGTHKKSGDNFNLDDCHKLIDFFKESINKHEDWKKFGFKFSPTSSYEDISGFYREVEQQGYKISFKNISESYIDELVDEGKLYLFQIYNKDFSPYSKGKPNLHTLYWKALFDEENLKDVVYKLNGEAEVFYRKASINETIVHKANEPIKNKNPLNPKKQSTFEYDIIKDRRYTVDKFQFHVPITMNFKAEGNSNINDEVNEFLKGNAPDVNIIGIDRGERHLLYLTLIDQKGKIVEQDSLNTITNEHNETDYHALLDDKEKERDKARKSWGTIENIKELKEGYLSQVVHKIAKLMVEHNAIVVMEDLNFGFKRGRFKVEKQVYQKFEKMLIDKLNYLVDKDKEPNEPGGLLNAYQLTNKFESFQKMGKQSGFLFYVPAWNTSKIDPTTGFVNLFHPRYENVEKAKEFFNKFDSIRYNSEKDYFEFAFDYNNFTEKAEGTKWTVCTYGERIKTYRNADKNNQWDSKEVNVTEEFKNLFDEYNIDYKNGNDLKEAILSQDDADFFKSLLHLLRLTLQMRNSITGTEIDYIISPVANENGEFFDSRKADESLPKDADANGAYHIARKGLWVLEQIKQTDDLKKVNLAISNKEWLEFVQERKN
Put plainly: cryo-EM.

Data set [2] has as its target T1, α-synCas (synthetic ancestral …). Put plainly: size exclusion chromatography.

B1: crRNA + target dsDNA (cis DNA), ternary complex (mixed)
RNA: AAUUUCUACUGUUGUAGAUUCCUAAGGCGUUACCCCAAU
DNA 1: CTAGCATATTTATCCTAAGGCGTTACCCCAATGGGAGGG
DNA 2: CCCTCCCATTGGGGTAACGCCTTAGGATAAATATGCTAG
Take B1: in data set [1], the binding result is recorded as “binds”. On to AAUUUCUACUGUUGUAGAUUCCUAAGGCGUUACCCCAAU (structured_RNA) [crRNA (cryo-EM)], for which the binding result in data set [2] is listed as “binds”.
